Experimental data reported in article PMC8093152, “Biosynthesis of the Tricyclic Aromatic Type II Polyketide Rishirilide: New Potential Third Ring Oxygenation after Three Cyclization Steps” (Molecular Biotechnology, 2021).

B1: RslO1 monooxygenase, C-terminal His-tag recombinant protein (enzyme, Streptomyces bottropensis Gö C4/4)
chain: MKFGINLFPTVGPAEKSAGQHFEESLRLAELADELGFHHVKTVEHYFHEYGGYSPDPVTFLAAAAARTRRVRLVTGAVLPVFTHPLKLAGKLAMLDNISQGRLDVGFGRAFLPDEFTAFEISMDESRARFDEGVEAVRRLWAEEDVVWEGTFHRFGPVTMLPRTWQRPHPRILVATAKTPASAEAAARAGHGVMLVPSINPREQVQKTLSLYRDAASAAGFKPTEEDIHMSYNCYLAEDGQEARQKGGQASERANRALASAVSAWRETRSADYPGYEKIVEKAGRGDFDRAVAERKALVGTPDEVRAAIDDIRGWFGDFTISLQVISGAMPFEESARTMRLFAEHLLPHYAAND
notes: RslO1, FMN-dependent luciferase-like monooxygenase of the rishirilide (Rsl) gene cluster of Streptomyces bottropensis Gö C4/4; gene amplified from cosmid 4 and cloned between NdeI and XhoI of pET21a(+); predicted mass of the tagged protein 40.04 kDa; also called monooxygenase RslO1; FMN-dependent luciferase-like monooxygenase RslO1; source: E. coli BL21 (DE3) Star, pET21a(+), purified (Ni-NTA …)
B2: RslO4 monooxygenase, C-terminal His-tag recombinant protein (enzyme, Streptomyces bottropensis Gö C4/4)
chain: MAVVFVNKLTLIGDAEEFESRYEAVGAFMETQPGLVRYSLVRSTKDDSVYFNIAEWDDEDTFRKALAEPEFRRRLDALTGLIKGEPHLSLPVRQGRAAQV
notes: RslO4, monooxygenase of the rishirilide (Rsl) gene cluster of Streptomyces bottropensis Gö C4/4; gene amplified from cosmid 4 and cloned between NdeI and XhoI of pET21a(+); rslO4 gene printed as 300 bps; predicted mass of the tagged protein 12.17 kDa; also called monooxygenase RslO4; cofactor-independent monooxygenase RslO4; source: E. coli BL21 (DE3) Star, pET21a(+), purified (Ni-NTA HisTrap FF, …)

Experiments:
[1] = target: the molecule itself; assay: crystal structure; apo RslO1, sitting drop vapor diffusion at 20 °C, 0.1 M HEPES pH 7.5, 36% polyethylene glycol 600 (seeded); space group P2(1)2(1)2(1); 1.60 Å
[2] = target: the molecule itself; assay: crystal structure; apo RslO4, sitting drop vapor diffusion at 20 °C, 6% ethanol, 0.1 M ammonium acetate pH 5.5, 1.5 M phosphate pH 7.0; space group P3(2)21, two monomers in the asymmetric unit; 1.8 Å

Protein | stoichiometry N [1] | stoichiometry N [2]
B1 | 2 | 
B2 |  | 2
